Measurements: US20100150950A1, “HUMAN ANTIBODIES THAT BIND CD70 AND USES THEREOF” (Medarex, Inc., priority 2006, published 2010)
Residue numbers refer to the chain shown, from its start.

B1: anti-CD70 human monoclonal antibody 69A7 (antibody, V domains shown)
VH: QVQLQESGPGLVKPSETLSLTCTVSGGSVSSDYYYWSWIRQPPGKGLEWLGYIYYSGSTNYNPSLKSRVTISVDTSKNQFSLKLRSVTTADTAVYYCARGDGDYGGNCFDYWGQGTLVTVSS
VL: EIVLTQSPATLSLSPGERATLSCRASQSVSSYLAWYQQKPGQAPRLLIFDASNRATGIPARFSGSGSGTDFTLTISSLEPEDFAVYYCQQRSNWPLTFGGGTKVEIK
notes: Human IgG from hybridoma; also called HuMAb 69A7; FITC-conjugated 69A7
B2: 2H5 NF: 2H5 HuMAb lacking fucosyl residues, expressed in CHO cell line Ms704-PF (antibody, V domains shown)
VH: QVQLVESGGGVVQPGRSLRLSCAASGFTFSSYIMHWVRQAPGKGLEWVAVISYDGRNKYYADSVKGRFTISRDNSKNTLYLQMNSLRAEDTAVYYCARDTDGYDFDYWGQGTLVTVSS
VL: B1 VL with F49Y, S92T

What was measured:
[1] = molecular target: T1, human CD70 expressed on the cell surface (human, UniProt P32970 1-193); assay: flow cytometry on 786-O cells, MFI
T1 construct: also called full length CD70 on transfected CHO cells
T1 sequence: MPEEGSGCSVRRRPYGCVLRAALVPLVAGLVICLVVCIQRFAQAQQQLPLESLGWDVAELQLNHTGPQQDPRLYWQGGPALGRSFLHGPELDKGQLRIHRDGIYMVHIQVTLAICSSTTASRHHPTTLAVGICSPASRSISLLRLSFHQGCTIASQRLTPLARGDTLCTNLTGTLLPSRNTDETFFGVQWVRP
Experimental: Binding of the anti-CD70 human monoclonal antibodies was assessed by incubating 5×10⁵ cells with antibody at a starting concentration of 10 μg/ml and serially diluting the antibody at a 1:3 dilution. The cells were washed and binding was detected with a PE-labeled anti-human IgG Ab. Flow cytometric analyses were performed using a FACSCalibur flow cytometry (Becton Dickinson, San Jose, Calif.).

[2] = tested on: peptide specific CD8+ T cells; assay: CMV peptide specific CD8+ T cell expansion in PBMC; format: cell-based, human
Experimental: Human MHC class I haplotype B*3501+ peripheral blood mononuclear cells (PBMC) pre-screened for cytomegalovirus (CMV) specific T cell responses (Astarte, Inc) were cultured in the presence of 25 ng/ml of B*3501 binding CMV peptide […] (SEQ ID NO:90) (ProImmune, Oxford, UK) and serial dilutions of the HuMAb 2H5 for 11 days. Cultures were analyzed by flow cytometry for CD8+ T cells by PE conjugated anti-CD8 staining (clone RPA-T8, BD Biosciences), for peptide specific CD8+ T cells by APC labeled peptide-MHC Class I pentameric oligomer staining (F114-4B; ProImmunc) and for viability by lack of propidium iodide staining. An isotype control antibody was used as a negative control. […] CD8+ T cell expansion (FIG. 37A). […] Data is representative of one additional experiment performed with the same donor.
Human MHC class I haplotype B*3501+PBMC pre-screened for cytomegalovirus (CMV) specific T cell responses (Astarte, Inc) were cultured in presence of 25 ng/ml of B*3501 binding CMV peptide […] (ProImmune) (SEQ ID NO:90) and 20 μgs/ml of the HuMAb 2H5 in the presence or absence of serial dilutions of an anti-human CD16 (FcRγIII) functional blocking Ab (clone 3G8; BD Biosciences) for 11 days and were then analyzed by flow cytometry for peptide specific CD8+ cell numbers as described above. […] Approximately 1000-fold more 3G8 was required to reverse 2H5 NF mediated inhibition compared to 2H5.

[3] = tested on: activated T cells; assay: ADCC fluorescence cytotoxicity assay, activated T cells; format: cell-based, human
Experimental: In this example, a defucosylated and non-defucosylated anti-CD70 monoclonal antibody was tested for the ability to kill activated T cells in the presence of effector cells via antibody dependent cellular cytotoxicity (ADCC) in a fluorescence cytotoxicity assay.
Human Anti-CD70 monoclonal antibody 2H5 was defucosylated as described above. Human effector cells were prepared as described above. Human spleen T cells were positively selected with anti-CD3 coated magnetic beads (Purity>90%). The cells were stimulated with anti-CD3 and anti-CD28 coated beads and 25 ng/ml IL-2 in Iscove's media+10% heat inactivated FCS for 6 days. Cells were collected and assayed for viability by propidium iodide incorporation (60% viable) and live cells were gated and analyzed for CD70 expression (˜65% CD70+ on live cells) prior to inclusion in ADCC assays.
The activated T cells were tested for antibody specific ADCC to the defucosylated and non-defucosylated human anti-CD70 monoclonal antibody 2H5 using the Delfia fluorescence emission analysis as follows. […] Following a 2100 rpm pulse spin and one hour incubation at 37° C., the supernatants were collected, quick spun again and 20 μl of supernatant was transferred to a flat bottom plate, to which 180 μl of Eu solution (Perkin Elmer, Wellesley, Mass.) was added and read in a Fusion Alpha TRF plate reader (Perkin Elmer). […]

[4] = tested on: CMV activated CD70+/CD4+ cells; assay: CMV Ag stimulated human CD4+ T cell expansion; format: cell-based; conditions: 2 μg/ml, day 9
Experimental: CMV positive pre-screened donors were cultured in AIM-V media supplemented with 10% heat-inactivated FCS at 1×10^6 cells/ml on 24-well culture plates and stimulated with 5.0 μg/ml of CMV lysate in the presence of 2 μg/ml of biotinylated 2H5, 2H5 NF or hIgG1nf control Abs. Cells were harvested on day 9 and the number of viable cells/ml in each culture was determined by counting an aliquot using a hemocytometer and trypan blue exclusion. The cells were washed in staining buffer and blocked with 5% human serum. Biotinylated 2H5, 2H5 NF, or hIgG1nf were added to an equal volume of cells at 20 μg/ml final concentration. Cells were incubated for 30 minutes, washed and stained with anti-CD4-FITC and PE-conjugated streptavidin. Cells were again incubated for 30 minutes, washed twice and then fixed and permeabilized using BD Cytofix/Cytoperm kit. The cells were washed twice in perm/wash buffer and intracellular stained with anti-INFγ-APC (BD Clone B27). […] Cells were analyzed by flow cytometry for CD70 surface and INFγ intracellular expression by gating on live CD4+ cells. The number of CD4+/CD70+ and CD4+/INFγ+ cells/ml in each condition were calculated by multiplying the percent CD70+ or INFγ+ cells in the CD4 gate by the percent of total CD4+ cells times the total number of viable cells/ml ((%CD70+ or INFγ+)×(%CD4+)×(total viable cells/ml)).

Row | Molecule | EC50 [1] | peptide specific CD8+ T cell expansion ([2]; 25 ng/ml CMV peptide, 11 days) | total CD8+ cell numbers ([2]; 25 ng/ml CMV peptide, 11 days) | 3G8 required to reverse inhibition compared to 2H5 ([2]; antibody 20 μgs/ml) | effect of anti-CD16 Ab 3G8 on inhibition of peptide specific CD8+ T cell expansion ([2]; antibody 20 μgs/ml, serial dilutions of 3G8) | antibody mediated cytotoxicity with addition of anti-CD16 antibody ([3]; activated T cells) | ADCC, % specific lysis of activated T cells ([3]; target to effector ratio 1:50) | depletion of CMV activated CD70+/CD4+ cells [4]
1 | B1 | 6.93 nM | – | – | – | – | – | – | –
2 | B2 | – | completely inhibited | no significant reduction | Approximately 1000 fold | Dose dependent reversal | blocked | increased percentage of specific lysis | 97%
